The supplement of paper PMC12338614
± gives the uncertainty stated by the source.

B1: library; numbered along this chain (parent)
chain: MEVVDPQQLGMFTEGELMSVGMDTFIHRIDSTEVIYQPRRKRAKLIGKYLMGDLLGEGSYGKVKEVLDSETLCRRAVKILKKKKLRRIPNGEANVKKEIQLLRRLRHKNVIQLVDVLYNEEKQKMYMVMEYCVCGMQEMLDSVPEKRFPVCQAHGYFCQLIDGLEYLHSQGIVHKDIKPGNLLLTTGGTLKISDLGVAEALHPFAADDTCRTSQGSPAFQPPEIANGLDTFSGFKVDIWSAGVTLYNITTGLYPFEGDNIYKLFENIGKGSYAIPGDCGPPLSDLLKGMLEYEPAKRFSIRQIRQHSWFRKKHPPAEAPVPIPPSPDTKDRWRSMTVVPYLEDLHGADEDEDLFDIEDDIIYTQDFTVPGQVPEEEASHNGQRRGLPKAVCMNGTEAAQLSTKSRAEGRAPNPARKACSASSKIRRLSACKQQ

Variants of: B1
Assay: STK11 functional score (HeLa growth suppression), rescaled enrichment; synonymous median = 1, nonsense median = 0 (normalised score)
Details: with HeLa; variant type: missense
In short: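 Functional scores are post/pre-selection log ratios corrected to wild type, rescaled to synonymous and nonsense medians, merged over codons and replicate transfections, and given bootstrapped error. They come from POPCode libraries of codon-optimised STK11 integrated by Bxb1 at an AAVS1 landing pad in HeLa, three regions each transfected three times, with BFP-negative, mCherry-positive integrants sorted by FACS and tiled gDNA amplicons sequenced on NextSeq.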

Row | Variant | STK11 functional score
1 | G381S | 1.36 ± 0.28
2 | G268Y | 1.32 ± 0.19
3 | K96E | 0.384 ± 0.32
4 | K96V | 0.667 ± 0.17
5 | K96T | 1.05 ± 0.082
6 | P369G | 1.56 ± 0.26
7 | P413R | 1.49 ± 0.33
8 | V338D | 1.39 ± 0.18
9 | G215T | 1.19 ± 0.51
10 | L201C | 1.12 ± 0.33
11 | A225V | 1.28 ± 0.52
12 | G180R | 0.948 ± 0.5
13 | G180N | 1.39 ± 0.47
14 | S334H | 1.05 ± 0.61
15 | R86E | 1.6 ± 0.14
16 | L263I | 1.57 ± 0.28
17 | Q220E | 0.51 ± 0.44
18 | F234I | 1.67 ± 0.4
19 | G279L | 1.41 ± 0.29
20 | G279E | 0.538 ± 0.088
21 | S378A | 1.44 ± 0.19
22 | C134L | 0.479 ± 0.083
23 | C134R | 1.52 ± 0.09
24 | T230V | 1.5 ± 0.18

Row | Variant | STK11 functional score
25 | D348Q | 1.54 ± 0.22
26 | D348P | 1.59 ± 0.14
27 | I79G | 0.345 ± 0.22
28 | L50C | 1.41 ± 0.2
29 | R103W | 0.732 ± 0.31
30 | Y272G | 1.2 ± 0.21
31 | Y272H | 1.08 ± 0.32
32 | Y272R | 0.701 ± 0.25
33 | F157M | 0.503 ± 0.088
34 | A397F | 1.35 ± 0.38
35 | A397D | 1.32 ± 0.35
36 | P275N | 1.41 ± 0.16
37 | D229R | 0.991 ± 0.36
38 | Y340T | 1.58 ± 0.14
39 | Y340N | 1.03 ± 0.63
40 | Y340V | 1.6 ± 0.27
41 | I322D | 1.18 ± 0.52
42 | F298L | 0.608 ± 0.15
43 | K44S | 1.4 ± 0.21
44 | T395C | 1.61 ± 0.23
45 | T395M | 1.05 ± 0.66
46 | T395S | 0.942 ± 0.26
47 | Q112A | 1.24 ± 0.47
48 | Q112F | 1.11 ± 0.18

Row | Variant | STK11 functional score
49 | T13S | 0.282 ± 0.092
50 | P324I | 1.56 ± 0.27
51 | E14F | 1.13 ± 0.088
52 | E14D | 1.22 ± 0.3
53 | E14A | 0.905 ± 0.29
54 | K416C | 1.14 ± 0.2
55 | D358P | 0.725 ± 0.8
56 | D358N | 0.776 ± 0.53
57 | P149E | 1.52 ± 0.19
58 | P149R | 0.413 ± 0.2
59 | P149W | 0.608 ± 0.17
60 | P149V | 0.694 ± 0.095
61 | W332L | 1.55 ± 0.14
62 | G227V | 0.625 ± 0.1
63 | G227M | 1.69 ± 0.22
64 | G227Y | 1.46 ± 0.42
65 | N181Q | 0.708 ± 0.31
66 | N181T | -0.449 ± 0.1
67 | N181D | -0.134 ± 0.054
68 | N181I | -0.248 ± 0.1
69 | Y126V | 0.762 ± 0.16
70 | K235S | 1.67 ± 0.14
71 | K235V | 0.794 ± 0.12
72 | H168G | 0.533 ± 0.13

Row | Variant | STK11 functional score
73 | E265A | 1.3 ± 0.53
74 | E265D | 1.31 ± 0.49
75 | Q159R | 1.03 ± 0.33
76 | S307L | 1.47 ± 0.1
77 | E342G | 1 ± 0.34
78 | S404K | 1.56 ± 0.26
79 | L160E | 0.305 ± 0.092
80 | Q399W | 1.43 ± 0.38
81 | Q399V | 0.994 ± 0.34
82 | I300R | -0.144 ± 0.081
83 | G187I | 1.62 ± 0.17
84 | R383V | 1.25 ± 0.38
85 | A76V | 1.06 ± 0.077
86 | A76S | 1.12 ± 0.2
87 | L85W | 1.16 ± 0.086
88 | L85C | 1.1 ± 0.34
89 | E317Y | 1.04 ± 0.4
90 | I88F | 0.793 ± 0.079
91 | Y246G | 0.403 ± 0.093
92 | E165K | 0.973 ± 0.53
93 | E165V | 0.465 ± 0.35
94 | F255W | 0.941 ± 0.1
95 | F255C | 0.921 ± 0.12
96 | E349D | 1.35 ± 0.44

Row | Variant | STK11 functional score
97 | E349C | 1.1 ± 0.42
98 | L427N | 1.63 ± 0.25
99 | S283Y | 0.69 ± 0.5
100 | S283F | 0.745 ± 0.076
101 | L245S | -0.117 ± 0.094
102 | N109V | 0.132 ± 0.083
103 | N109A | 0.625 ± 0.74
104 | N109M | 0.647 ± 0.075
105 | L290F | 0.664 ± 0.42
106 | L290T | 1.07 ± 0.45
107 | L54D | 1.14 ± 0.35
108 | L54W | 0.575 ± 0.083
109 | A273C | 0.584 ± 0.098
110 | A273I | 1.46 ± 0.34
111 | A273V | 0.694 ± 0.13
112 | A273S | 0.646 ± 0.15
113 | L117S | 0.291 ± 0.17
114 | S193Y | -0.104 ± 0.094
115 | L195P | 1.49 ± 0.18
116 | A200G | 0.439 ± 0.33
117 | A200V | 0.901 ± 0.23
118 | V372F | 1.12 ± 0.35
119 | V372D | 1.53 ± 0.33
120 | K287R | 0.533 ± 0.14

Row | Variant | STK11 functional score
121 | S232M | 0.515 ± 0.49
122 | S428L | 0.874 ± 0.14
123 | L386Q | 1.37 ± 0.15
124 | L386P | 0.743 ± 0.56
125 | L386C | 1.31 ± 0.42
126 | L386F | 0.706 ± 0.4
127 | E138W | 1.19 ± 0.16
128 | V173A | 0.314 ± 0.31
129 | V173Y | 1.04 ± 0.13
130 | V173C | 0.883 ± 0.57
131 | S59H | 1.09 ± 0.58
132 | S59L | 1.56 ± 0.32
133 | S59D | 0.937 ± 0.59
134 | D162R | 1.55 ± 0.43
135 | D162A | 0.819 ± 0.49
136 | P326A | 0.8 ± 0.72
137 | L102T | 0.0689 ± 0.37
138 | L102G | 1.07 ± 0.08
139 | L17R | 1.22 ± 0.26
140 | L17Q | 1.71 ± 0.4
141 | L17P | 1.6 ± 0.25
142 | H379V | 1.46 ± 0.26
143 | H379D | 1.18 ± 0.35
144 | A410K | 1.6 ± 0.2

Row | Variant | STK11 functional score
145 | A410F | 1.4 ± 0.2
146 | G251C | -0.00733 ± 0.1
147 | K312R | 1.57 ± 0.17
148 | K312V | 1.27 ± 0.11
149 | E57W | 0.873 ± 0.077
150 | E57R | 1.13 ± 0.17
151 | K175G | 0.847 ± 0.18
152 | L105R | 0.653 ± 0.31
153 | S401H | 1.49 ± 0.16
154 | A205E | 1.64 ± 0.21
155 | A205S | 1.18 ± 0.34
156 | Q100G | 1.17 ± 0.14
157 | L164I | 1.16 ± 0.17
158 | E351H | 0.374 ± 0.082
159 | E351D | 0.951 ± 0.63
160 | K64P | 0.931 ± 0.21
161 | K64W | 1.39 ± 0.16
162 | D68W | 0.944 ± 0.17
163 | S216M | 0.227 ± 0.12
164 | T363D | 1.45 ± 0.16
165 | T363Y | 1.18 ± 0.44
166 | G270E | 1.42 ± 0.72
167 | G270N | 1.4 ± 0.35
